Laboratory results reported in patent US20110182905A1.

Target: purified hGM-CSF (Biomol #2514, expressed in E. coli) (human) (UniProt P04141)
Experiment: cell-based or functional assay

purified hGM-CSF (Biomol #2514, expressed in E. coli) (human), sequence (P04141 18-144 limits assumed): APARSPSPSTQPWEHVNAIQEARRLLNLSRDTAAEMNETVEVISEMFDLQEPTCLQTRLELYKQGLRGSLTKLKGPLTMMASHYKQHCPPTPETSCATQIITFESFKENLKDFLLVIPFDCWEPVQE

Substance: rat-anti-human-GM-CSF IgG2a BVD2-21C11 (BD #554503) (antibody)
- TF-1 assay hGM-CSF (E. coli) [pM], GM-CSF final concentration 1.0 ng/ml: 8260 pM
